Measurements as given in patent publication US7595158B2, “Bcl2L12 polypeptide activators and inhibitors” (Dana-Farber Cancer Institute, Inc., priority 2003, dated 2009).

T1: caspase-9 (Homo sapiens, UniProt P55211)
T1 construct: endogenous in cells; host or cells: 293T
T1 sequence (P55211 1-416): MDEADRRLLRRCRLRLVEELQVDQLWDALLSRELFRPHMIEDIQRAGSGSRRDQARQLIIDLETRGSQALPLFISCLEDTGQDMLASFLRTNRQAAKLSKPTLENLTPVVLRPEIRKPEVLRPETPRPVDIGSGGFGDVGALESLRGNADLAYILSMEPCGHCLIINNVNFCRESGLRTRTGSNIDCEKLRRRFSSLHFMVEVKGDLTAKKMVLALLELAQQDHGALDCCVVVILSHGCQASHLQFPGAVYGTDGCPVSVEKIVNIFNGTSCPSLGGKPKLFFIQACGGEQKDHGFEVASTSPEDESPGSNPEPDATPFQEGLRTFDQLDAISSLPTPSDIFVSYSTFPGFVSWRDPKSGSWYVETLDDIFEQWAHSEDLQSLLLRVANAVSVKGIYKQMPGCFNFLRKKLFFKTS


Assays:
[1] = tested on: Ink4a/Arf deficient astrocytes; experiment: DNA fragmentation (sub-G1, FACS) in Ink4a/Arf deficient astrocytes after apoptotic stimuli; assay type: cell-based, mouse; settings: for DNA fragmentation: 500 nM STS, pBabe about 22 percent
Experimental: After STS treatment, the cells were analyzed for apoptosis by assessing annexin V binding and DNA fragmentation using a FACS based analysis.
In a separate experiment, Ink4a/Arf deficient astrocytes ectopically expressing Bcl2L12-V5 polypeptide or containing an empty vector as control were treated with 0, 50, 100, or 1000 nM of STS. After a 24 hour-incubation, DNA fragmentation was measured using FACS-based quantification of sub-G1 DNA content.
In another experiment, Ink4a/Arf deficient astrocytes ectopically expressing Bcl2L12-V5 polypeptide or containing an empty vector as control were treated with 0, 2, 4, 8, 16, or 32 μM camptothecin (CPT) for 20 hours. After the 20 hour incubation, DNA fragmentation was determined by FACS-based quantification of sub-G1 peaks. Expression of the Bcl2L12 polypeptide conferred resistance to CPT-stimulated apoptosis.
Ink4a/Arf deficient astrocytes ectopically expressing Bcl2L12-V5 polypeptide or containing an empty vector as control were treated with TNFα in the presence of 1 μg/mL cycloheximide for 24 hours. After the 24 hour incubation, DNA fragmentation was measured using FACS-based quantification of sub-G1 DNA content.
Ink4a/Arf deficient astrocytes ectopically expressing Bcl2L12-V5 polypeptide or containing an empty vector as control were treated with 0, 10, 50, and 100 Gray (Gy) of γ radiation. After 24 hours, DNA fragmentation was measured. Ectopic expression of a Bcl2L12 polypeptide protects INK4a/Arf deficient astrocytes from γ-irradiation-induced apoptosis (FIG. 5C).

[2] = tested on: caspase-2; caspase-3/7; caspase-6; caspase-8; and caspase-9; experiment: Caspase activity with AFC-labeled peptides in lysates of STS-treated astrocytes; assay type: cell-based; settings: for caspase activity (caspase-2, -3/7, -6, -8, -9): STS (500 nm) 24 hours
Experimental: The following experiment was performed to determine whether Bcl2L12 inhibits caspase activation. Briefly, a caspase activation profile was generated using fluorochrome-labeled peptides resembling the ideal cleavage sites for caspases-2 (VDVAF; SEQ ID NO:29), caspases-3/7 (DEVD; SEQ ID NO:27), caspase-6 (VEID; SEQ ID NO:31), caspase-8 (IETD; SEQ ID NO:30), and caspase-9 (LEHD; SEQ ID NO:28). Two confluent 15 cm dishes of astrocytes (pBabe or Bcl2L12-V5 transfected) were left untreated or treated with STS (500 nm) for 24 hours and lysed in a lysis buffer containing 1% Trition X-100. The lysed cells were then spun for 15 minutes at 14,000 rpm at 4° C. to obtain a postnuclear supernatant. The supernatants (standardized to 20 mg of protein) were incubated with 40 μM of AFC labeled peptide substrate for 1 hour at 37° C. The samples were read in a fluorescence plate reader, and the specific RFUs were calculated. In the presence of active caspases, the fluorogenic group AFC is released from the peptide, and its fluorescence can be quantified using a plate reader.
The mechanism of action of EGFR*, in contrast to Bcl2L12, stems from the activation of upstream survival pathways that converge to inhibit cytochrome c redistribution and subsequent caspase-9 processing (FIG. 8B), as reported previously (Nagane et al., Proc Natl Acad Sci USA 95:5724-9(1998)). In addition, the ability of Bcl2L12 polypeptide to inhibit effector caspase function is reflected in decreased levels of the caspase-9 p37 as a result of caspase-3-mediated cleavage intermediate (FIG. 8A, 16 hours; Fujita et al., Cell Death Differ. 8:335-44 (2001)). […] As a consequence of a caspase-3-mediated feedback mechanism (Fujita et al., Cell Death Differ. 8:335-44 (2001); Slee et al., J Cell Biol. 144, 281-92 (1999)), caspase-9 processing in later phases of apoptosis progression was enhanced (FIG. 8C, 16 hours). […] Caspase activities were determined fluorometrically using a fluorescence plate reader. […]

caspase-9 = molecular target: T1, caspase-9; experiment: Caspase-9 in vitro cleavage and LEHDase activity assay with 293T cells; assay type: cell-based; settings: for caspase-9 activity: V5 tagged constructs, vector only about 420 RFUs
Text: To determine if Bcl2L12 polypeptides could-regulate-the activity of caspase-9, a cell-free system was used in which exogenously added dATP and cytochrome c induced the activation of [^35S] labeled in vitro translated caspase-9. […] To confirm the inhibitory effect of Bcl2L12 polypeptides on caspase-9 maturation, 293T cells ectopically expressing Bcl2L12-V5 polypeptides where either subjected to an in vitro cleavage assay or to an activity assay using the caspase-9 specific fluorogenic peptide LEHD.
In addition, vectors encoding V5 tagged wild-type human Bcl2L12 polypeptide (WT; human amino acid sequence 1-334) and three V5 tagged truncation mutants of human Bcl2L12 (Bcl2L12-ΔBH2 polypeptide, human amino acid sequence 1-310; Bcl2L12-ΔBH2ΔP-r polypeptide, human amino acid sequence 1-267; and Bcl2L12-ΔBH2ΔP-rΔIHD polypeptide, human amino acid sequence 1-167) were made (FIG. 4A). These vectors expressed the appropriately sized polypeptides when translated in vitro or when expressed in 293T cells.

| Molecule | DNA fragmentation [1] | caspase activity (caspase-2, -3/7, -6, -8, -9) [2] | caspase-9 activity (caspase-9) | resistance to anti-Fas, TRAIL, etoposide, and carboplatin mediated apoptosis [1] | protection from γ-irradiation-induced apoptosis (DNA fragmentation) ([1]; 10, 50, 100 Gy, 24 hours) | protection from STS-induced apoptosis (DNA fragmentation) ([1]; 50, 100, or 1000 nM STS, 24 hours) | protection from TNFα-mediated apoptosis (DNA fragmentation) ([1]; TNFα with 1 μg/mL cycloheximide, 24 hours) | maximum percent DNA fragmentation ([1]; camptothecin up to 32 μM, 20 hours, pBabe greater than 60 percent) [%] | DEVDase activity ([2]; 0.5 μM STS, pBabe about 8500 RFUs) | LEHDase activity (caspase-9; 293T cells, control vector about 800 RFUs) | processing of caspase-9 into p37 and p35 (caspase-9; in vitro cleavage assay, 293T cells, vs vector only) |
| --- | --- | --- | --- | --- | --- | --- | --- | --- | --- | --- | --- |
| Bcl2L12-V5-ΔBH2: V5 tagged mutant lacking amino acid residues 311-334 (BH2 domain) of human Bcl2L12; sequence 1-310 (protein, left off: small tags and cut ends) MGRPAGLFPPLCPFLGFRPEACWERHMQIERAPSVPPFLRWAGYRPGPVRRRGKVELIKFVRVQWRRPQVEWRRRRWGPGPGASMAGSEELGLREDTLRVLAAFLRRGEAAGSPVPTPPRSPAQEEPTDFLSRLRRCLPCSLGRGAAPSESPRPCSLPIRPCYGLEPGPATPDFYALVAQRLEQLVQEQLKSPPSPELQGPPSTEKEAILRRLVALLEEEAEVINQKLASDPALRSKLVRLSSDSFARLVELFCSRDDSSRPSRACPGPPPPSPEPLARLALAMELSRRVAGLGGTLAGLSVEHVHSFTP | about 7% | even more pronounced inhibition | about 160 RFUs |  |  |  |  |  |  |  |  |
| Bcl2L12-V5: Bcl2L12 polypeptide having the V5 epitope tag, ectopically expressed from pBabe-Bcl2L12-V5 vector; human amino acid sequence 1-334 (protein, left off: small tags and cut ends) MGRPAGLFPPLCPFLGFRPEACWERHMQIERAPSVPPFLRWAGYRPGPVRRRGKVELIKFVRVQWRRPQVEWRRRRWGPGPGASMAGSEELGLREDTLRVLAAFLRRGEAAGSPVPTPPRSPAQEEPTDFLSRLRRCLPCSLGRGAAPSESPRPCSLPIRPCYGLEPGPATPDFYALVAQRLEQLVQEQLKSPPSPELQGPPSTEKEAILRRLVALLEEEAEVINQKLASDPALRSKLVRLSSDSFARLVELFCSRDDSSRPSRACPGPPPPSPEPLARLALAMELSRRVAGLGGTLAGLSVEHVHSFTPWIQAHGGWEGILAVSPVDLNLPLD | about 2% | significantly impaired | about 145 RFUs | complete resistance | protects | protected astrocytes from STS-induced apoptosis | significant protection | 35 to 45 | about 3500 RFUs | about 260 RFUs | reduced processing of caspase-9 |
